Measured values: FireProtDB (doi:10.1093/protein/7.9.1089)
“And” between values parts separate entries of the source, which are not always exact repeats. Equal values may be shown once.

B1: Ribonuclease, P00648 (parent)
chain: MMKMEGIALKKRLSWISVCLLVLVSAAGMLFSTAAKTETSSHKAHTEAQVINTFDGVADYLQTYHKLPDNYITKSEAQALGWVASKGNLADVAPGKSIGGDIFSNREGKLPGKSGRTWREADINYTSGFRNSDRILYSSDWLIYKTTDHYQTFTKIR

Variants of: B1
Conditions: Bacillus amyloliquefaciens, pH 4.4, Thermal, DSC, Sodium acetate/Acetic acid 6.08 mM/13.92 mM/, reversible: yes (>95%), structure 1BNI, whole UniProt chain shown; for ddG of mutation (higher = less stable) / heat capacity change of unfolding / unfolding free energy: 25 °C

Row | Variant | ddG of mutation (higher = less stable) | heat capacity change of unfolding [kcal/mol/K] | unfolding free energy | Tm | change of melting temperature, mutant - wild type (higher = more stable) | unfolding enthalpy (calorimetric) | unfolding enthalpy (van 't Hoff)
1 | MMKMEGIALKKRLSWISVCLLVLVSAAGMLFSTAAKTETSSHKAHTEAQVINTFDGVADYLQTYHKLPDNYITKSEAQALGWVASKGNLADVAPGKSIGGDIFSNREGKLPGKSGRTWREADINYTSGFQNSDRILYSSDWLIYKTTDHYQTFTKIR [R130Q] | 1.58 kcal/mol | 1.6 | 7.08 kcal/mol | 48.3 °C | -3.29 °C | 117 kcal/mol | 122 kcal/mol
2 | MMKMEGIALKKRLSWISVCLLVLVSAAGMLFSTAAKTETSSHKAHTEAQVINTFAGVADYLQTYHKLPDNYITKSEAQALGWVASKGNLADVAPGKSIGGDIFSNREGKLPGKSGRTWREADINYTSGFRNSDRILYSSDWLIYKTTDHYQTFTKIR [D55A] | 0.69 kcal/mol | 1.6 | 7.97 kcal/mol | 49.7 °C | -1.91 °C | 124 kcal/mol | 127 kcal/mol
3 | MMKMEGIALKKRLSWISVCLLVLVSAAGMLFSTAAKTETSSHKAHTEAQVINTFDGVADYLQTYHKLPDNYITKSEAQALGWVASKGNLADVAPGKSIGGDIFSNREGKLPGKSGMTWREADINYTSGFRNSDRILYSSDWLIYKTTDHYQTFTKIR [R116M] | 2.86 kcal/mol | 1.6 | 5.8 kcal/mol | 45.9 °C | -5.77 °C | 106 kcal/mol | 118 kcal/mol
4 | MMKMEGIALKKRLSWISVCLLVLVSAAGMLFSTAAKTETSSHKAHTEAQVINTFDGVADYLQTYHKLPDNYITKSEAQALGWVASKGNLADVAPGKSVGGDIFSNREGKLPGKSGRTWREADINYTSGFRNSDRILYSSDWLIYKTTDHYQTFTKIR [I98V] | 1.86 kcal/mol | 1.6 | 6.83 kcal/mol | 47 °C | -4.53 °C | 118 kcal/mol | 114 kcal/mol
5 | MMKMEGIALKKRLSWISVCLLVLVSAAGMLFSTAAKTETSSHKAHTEAQVINTFDGVADYLQTYHKLPDNYITKSEAQALGWVASKGNLADVAPGKSIGGNIFSNREGKLPGKSGRTWREADINYTSGFRNSDRILYSSDWLIYKTTDHYQTFTKIR [D101N] | 2.46 kcal/mol and 2.66 kcal/mol | 1.6 | 6.2 kcal/mol and 6 kcal/mol | 44.6 °C and 44.1 °C | -7.06 °C and -7.49 °C | 117 kcal/mol and 115 kcal/mol | 113 kcal/mol and 116 kcal/mol
6 | MMKMEGIALKKRLSWISVCLLVLVSAAGMLFSTAAKTETSSHKAHTEAQVINTFDGVADYLQTYHKLPDNYITKSEAQALGWVASKGNLADVAPGKSIGGDIFSNREGKLPGKSGRTWREADINYTSGFRNSDRILYSSDWLVYKTTDHYQTFTKIR [I143V] | 1.18 kcal/mol and 1.17 kcal/mol | 1.6 | 7.51 kcal/mol and 7.52 kcal/mol | 49.2 °C | -2.29 °C and -2.3 °C | 120 kcal/mol and 112 kcal/mol | 125 kcal/mol and 123 kcal/mol
7 | MMKMEGIALKKRLSWISVCLLVLVSAAGMLFSTAAKTETSSHKAHTEAQVINTFDGVADYLQTYHKLPDNYIGKSEAQALGWVASKGNLADVAPGKSIGGDIFSNREGKLPGKSGRTWREADINYTSGFRNSDRILYSSDWLIYKTTDHYQTFTKIR [T73G] | 2.08 kcal/mol | 1.6 | 6.58 kcal/mol | 47.6 °C | -4.06 °C | 112 kcal/mol | 118 kcal/mol
8 | MMKMEGIALKKRLSWISVCLLVLVSAAGMLFSTAAKTETSSHKAHTEAQVINTFDGVAGYLQTYHKLPDNYITKSEAQALGWVASKGNLADVAPGKSIGGDIFSNREGKLPGKSGRTWREADINYTSGFRNSDRILYSSDWLIYKTTDHYQTFTKIR [D59G] | 0.78 kcal/mol | 1.6 | 7.88 kcal/mol | 49.7 °C | -1.95 °C | 123 kcal/mol | 124 kcal/mol
9 | MMKMEGIALKKRLSWISVCLLVLVSAAGMLFSTAAKTETSSHKAHTEAQVINTFDGVADYLQTYHKLPMNYITKSEAQALGWVASKGNLADVAPGKSIGGDIFSNREGKLPGKSGRTWREADINYTSGFRNSDRILYSSDWLIYKTTDHYQTFTKIR [D69M] | 0.27 kcal/mol | 1.6 | 8.39 kcal/mol | 50.1 °C | -1.57 °C | 129 kcal/mol | 128 kcal/mol
10 | MMKMEGIALKKRLSWISVCLLVLVSAAGMLFSTAAKTETSSHKAHTEAQVINTFDGVADYLQTYHKLPDNYITKSEAQALGWVASKGNLADVAPGKSIGGDIFSNREGKLPGKSGRTWREADINYTSGFRNSDRILYSADWLIYKTTDHYQTFTKIR [S139A] | 2.83 kcal/mol | 1.6 | 5.83 kcal/mol | 44.5 °C | -7.13 °C | 111 kcal/mol | 110 kcal/mol
11 | MMKMEGIALKKRLSWISVCLLVLVSAAGMLFSTAAKTETSSHKAHTEAQVINTFDGVADYLQRYHKLPDNYITKSEAQALGWVASKGNLADVAPGKSIGGDIFSNREGKLPGKSGRTWREADINYTSGFRNSDRILYSSDWLIYKTTDHYQTFTKIR [T63R] | -0.2 kcal/mol | 1.6 | 8.86 kcal/mol | 53 °C | 1.33 °C | 126 kcal/mol | 130 kcal/mol
12 | MMKMEGIALKKRLSWISVCLLVLVSAAGMLFSTAAKTETSSHKAHTEAQVINTFDGVADYLQTYHKLPDNYITKSEAQALGWVASKGNLADVAPGKSIGGDIFSNREGKLPGKSGRTWREADINYTSGFRNSDRVLYSSDWLIYKTTDHYQTFTKIR [I135V] | 1.47 kcal/mol | 1.6 | 7.22 kcal/mol | 48.1 °C | -3.37 °C | 119 kcal/mol | 125 kcal/mol
13 | MMKMEGIALKKRLSWISVCLLVLVSAAGMLFSTAAKTETSSHKAHTEAQVINTFDGVADYLQTYHKLPDNYITKSEAQALGWVASKGNLADVAPGKSIGGDIFSNREGKLPGKSGRTWREADINYTSGFRNSDRILYASDWLIYKTTDHYQTFTKIR [S138A] | 1.38 kcal/mol and 1.16 kcal/mol | 1.6 | 7.31 kcal/mol and 7.53 kcal/mol | 46.7 °C | -4.81 °C and -4.8 °C | 126 kcal/mol and 129 kcal/mol | 116 kcal/mol and 115 kcal/mol
